Laboratory results published in article PMC6345502, “Vancomycin does not affect the enzymatic activities of purified VanSA” (PLoS ONE, 2019).
Several values for one entry are separate records, joined by “and”; a condition that tells them apart may be missing. Identical values can stand only once.

B3: full-length VanSA (enzyme)
chain: MVIKLKNKKNDYSKLERKLYMYIVAIVVVAIVFVLYIRSMIRGKLGDWILSILENKYDLNHLDAMKLYQYSIRNNIDIFIYVAIVISILILCRVMLSKFAKYFDEINTGIDVLIQNEDKQIELSAEMDVMEQKLNTLKRTLEKREQDAKLAEQRKNDVVMYLAHDIKTPLTSIIGYLSLLDEAPDMPVDQKAKYVHITLDKAYRLEQLIDEFFEITRYNLQTITLTKTHIDLYYMLVQMTDEFYPQLSAHGKQAVIHAPEDLTVSGDPDKLARVFNNILKNAAAYSEDNSIIDITAGLSGDVVSIEFKNTGSIPKDKLAAIFEKFYRLDNARSSDTGGAGLGLAIAKEIIVQHGGQIYAESNDNYTTFRVELPAMPDLVDKRRS
notes: VanS sensor histidine kinase of type-A vancomycin resistance in enterococci, Uniprot Q06240, full length; the construct has 392 amino acids including the C-terminal PG-6xHis tag; Membrane protein; kept in 10 mM LDAO for SEC and storage and in 9 mM C12E8 for the SPR injections; source: E. coli BL21(DE3), purified from the membrane fraction (DDM extraction, IMAC, Sephacryl S-300 in LDAO)

Legend:
full-length VanSA = target: B3; experiment: SPR; 1D4-tagged VanRA captured on Rho1D4 antibody on a GLC chip; full-length VanSA as analyte in running buffer + 9 mM C12E8; 25°C; 50 mM BIS-TRIS pH 6.0, 150 mM NaCl, 10 mM MgCl2, 0.005% Tween 20; one-site model fitted to equilibrium responses; concentrations for dimers; conditions: both partners purified
[1] = target: T1, cytosolic domain of VanSA (enterococci, UniProt Q06240 98-384); experiment: SPR; 1D4-tagged VanRA captured on Rho1D4 antibody amine-coupled to a GLC chip (ProteOn XPR36); cytosolic histidine kinase as analyte; 25°C; 50 mM BIS-TRIS pH 6.0, 150 mM NaCl, 10 mM MgCl2, 0.005% Tween 20; one-site model fitted to equilibrium responses; concentrations for dimers; conditions: both partners purified
T1 construct: two residues at the N-terminus contributed by the vector pETCH; VanS of type-A vancomycin resistance in enterococci, Uniprot Q06240, residues 98-384, beginning at K98 just after the second predicted transmembrane helix; also called cVanSA; Cytosolic VanSA; source: E. coli BL21(DE3), purified (IMAC, HiTrap Q, S-300)
T1 sequence: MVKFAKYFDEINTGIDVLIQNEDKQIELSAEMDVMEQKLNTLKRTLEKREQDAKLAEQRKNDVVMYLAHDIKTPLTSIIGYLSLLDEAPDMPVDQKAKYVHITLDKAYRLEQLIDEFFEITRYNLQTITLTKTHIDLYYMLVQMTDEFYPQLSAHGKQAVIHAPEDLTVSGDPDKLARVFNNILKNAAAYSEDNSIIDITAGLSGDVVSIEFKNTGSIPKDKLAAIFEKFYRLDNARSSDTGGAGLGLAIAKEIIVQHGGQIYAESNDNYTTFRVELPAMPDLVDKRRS

Phospho-cytosolic VanSA = target: T2, Phospho-cytosolic VanSA (enterococci, UniProt Q06240 98-384, phospho-histidine at the conserved histidine (autophosphorylated; not expected to be fully phosphorylated)); experiment: as above; conditions: both partners purified
T2 construct: two residues at the N-terminus contributed by the vector pETCH; VanS of type-A vancomycin resistance in enterococci, Uniprot Q06240, residues 98-384, beginning at K98; also called autophosphorylated cVanSA; phospho-cVanSA
T2 sequence: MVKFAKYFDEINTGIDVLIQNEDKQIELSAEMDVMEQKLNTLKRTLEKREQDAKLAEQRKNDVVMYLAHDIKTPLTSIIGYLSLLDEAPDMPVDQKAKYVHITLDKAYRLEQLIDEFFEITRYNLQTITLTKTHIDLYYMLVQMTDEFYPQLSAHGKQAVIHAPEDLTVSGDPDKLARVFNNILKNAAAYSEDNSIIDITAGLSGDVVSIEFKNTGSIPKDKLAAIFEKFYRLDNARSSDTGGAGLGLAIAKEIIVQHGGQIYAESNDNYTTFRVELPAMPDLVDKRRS

[2] = target: T1, cytosolic domain of VanSA; experiment: fluorescence polarisation; fluorescence anisotropy; cVanSA titrated into 40 nM fluorescein-labeled VanRA; 50 mM Tris pH 7.8, 100 mM NaCl, 5 mM MgCl2, 0.05% Tween-20; room temperature; conditions: both partners purified
[3] = target: the molecule itself; experiment: SEC; Sephacryl S-300 in 50 mM Tris pH 7.8, 500 mM NaCl, 5 mM MgCl2, 10 mM LDAO; elution compared with the 80 kDa apotransferrin standard

B1: 1D4-tagged VanRA (natural protein)
chain: MSDKILIVDDEHEIADLVELYLKNENYTVFKYYTAKEALECIDKSEIDLAILDIMLPGTSGLTICQKIRDKHTYPIIMLTGKDTEVDKITGLTIGADDYITKPFRPLELIARVKAQLRRYKKFSGVKEQNENVIVHSGLVINVNTHECYLNEKQLSLTPTEFSILRILCENKGNVVSSELLFHEIWGDEYFSKSNNTITVHIRHLREKMNDTIDNPKYIKTVWGVGYKIEK
notes: VanR response regulator of type-A vancomycin resistance in enterococci, Uniprot Q06239; the 1D4 tag and linker add 13 residues to the wild-type VanRA construct; Expression and purification of this tagged construct are not described; also called tagged VanRA construct; immobilized VanRA
Work on B1 yielded a Kd (full-length VanSA) of 1900 ± 700 nM, a Kd [1] of 6800 ± 1400 nM and a Kd (Phospho-cytosolic VanSA) of 2500 ± 800 nM.

B2: fluorescently-labeled VanRA (natural protein, enterococci)
chain: CMSDKILIVDDEHEIADLVELYLKNENYTVFKYYTAKEALECIDKSEIDLAILDIMLPGTSGLTICQKIRDKHTYPIIMLTGKDTEVDKITGLTIGADDYITKPFRPLELIARVKAQLRRYKKFSGVKEQNENVIVHSGLVINVNTHECYLNEKQLSLTPTEFSILRILCENKGNVVSSELLFHEIWGDEYFSKSNNTITVHIRHLREKMNDTIDNPKYIKTVWGVGYKIEK
modifications: fluorescein maleimide on the cysteine introduced at the N-terminus
notes: additional cysteine at the N-terminus, introduced by site-directed mutagenesis instead of the glycine of the wild-type construct; VanR response regulator of type-A vancomycin resistance in enterococci, Uniprot Q06239; Expression and purification of the cysteine mutant are not described; After labelling it was passed over Sephacryl S-100 HR; also called fluorescein-labeled VanRA; …
With B2 the Kd [2] was 200 nM and 100 to 1000 nM.

B3: binds [3].
